# Test results published in PMC13348673.
# Columns and labels:
# [1] = target: Arp2/3 complex branch junction (sheep Arp2/3 complex bound to rabbit actin mother and daughter filaments) (sheep (endogenous in brain) | rabbit) (UniProt P68135)
# [2] = target: Arp2/3 complex branch junction (sheep Arp2/3 complex bound to rabbit actin mother and daughter filaments) (sheep (endogenous in brain) | rabbit) (UniProt P68135); remark: listed apart in the source
# [3] = target: Arp2/3 complex branch junction (sheep Arp2/3 complex bound to rabbit actin mother and daughter filaments) (sheep (endogenous in brain) | rabbit) (UniProt P68135); experiment: microfluidics debranching assay under pulling force (TIRF microscopy of single branches); ADP-Arp2/3 branch junctions exposed to various GMF concentrations; constant average force 2.8 pN; 0.15 µM actin, 200 µM ATP; affinity from the fit of the saturation curve of the debranching rate
stability (inverse debranching rate) of ADP-Arp2/3 complex branches at 6 pN with 20 nM cortactin against no cortactin [1] [fold],"debranching rate of ADP-Arp2/3 complex branch junctions against GMF concentration (2.8 pN, 0.15 µM actin, 200 µM ATP) [2] [fold]",Kd [3] [nM],Substance
30,,,Mouse cortactin full length (amino acids 1–546) (from UniProt Q60598 1-546) (natural protein)
,6,30,Recombinant N-terminal 6xHis-tagged human GMFγ (amino acids 7–140) (from UniProt O60234 7-140) (natural protein)
